One substance from US7534431 can be followed below.

This assay has as its target carcinoembryonic antigen (CEA) (UniProt P06731). Briefly: size-exclusion HPLC shift of radioiodinated bispecific conjugate in the presence of excess CEA. For orientation: Size exclusion chromatography separates by hydrodynamic size, large species first.
Sequence of UniProt P06731 (P06731 35-685 limits assumed): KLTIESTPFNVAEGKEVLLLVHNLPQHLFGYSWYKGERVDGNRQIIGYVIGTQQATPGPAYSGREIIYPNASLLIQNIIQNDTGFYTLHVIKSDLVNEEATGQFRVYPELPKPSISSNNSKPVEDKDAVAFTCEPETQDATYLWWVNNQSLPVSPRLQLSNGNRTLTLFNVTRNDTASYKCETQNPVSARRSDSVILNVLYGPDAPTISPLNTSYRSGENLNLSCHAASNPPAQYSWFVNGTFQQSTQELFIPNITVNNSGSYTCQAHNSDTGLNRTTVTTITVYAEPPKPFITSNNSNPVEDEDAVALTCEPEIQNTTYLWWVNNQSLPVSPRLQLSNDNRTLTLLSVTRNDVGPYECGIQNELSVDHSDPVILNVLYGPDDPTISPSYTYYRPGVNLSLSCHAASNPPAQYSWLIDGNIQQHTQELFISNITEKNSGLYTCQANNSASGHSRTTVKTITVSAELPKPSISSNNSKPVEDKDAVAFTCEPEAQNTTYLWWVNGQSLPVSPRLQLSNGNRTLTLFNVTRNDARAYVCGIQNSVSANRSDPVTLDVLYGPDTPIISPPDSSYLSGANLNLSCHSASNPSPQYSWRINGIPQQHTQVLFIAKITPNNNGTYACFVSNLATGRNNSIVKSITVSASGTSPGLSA

Consider “hMN-14×734 bispecific antibody (Fab' of humanized anti-CEA hMN-14 coupled to Fab' of murine anti-indium-DTPA 734)”, for which the immunoreactivity (fraction of radioiodinated sample shifted by excess CEA) is over 85%.
